The test concerns the target bact sCRFR2α (mouse soluble CRF receptor type 2α, amino acids 20-143, purified from E. coli) (mouse). The test can be described thus: radioreceptor assay, displacement of [125I-DTyr0]-astressin from purified sCRFR2α.

Regarding Astressin (peptide), the Ki (in general, a measure of affinity in units of concentration, obtained from inhibition or displacement) was 10 nM.
